Laboratory results published in the supplement of paper PMC11865577.

Key:
Test in all cases: pull-down binding Z-score (relative to library population); higher = stronger binding
Settings in all cases: RNA library: Library-2
[1] = test system: TO-3-N3-2 (biotin conjugate)
Summary of the method: (§1)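 A heat-folded, dye-end-labelled (Cy5 or Cy3) RNA library (1 μg, phosphate/NaCl/KCl buffer) was exposed for 60 min at 25 °C to streptavidin beads holding 100 pmol of biotin-conjugated small molecule. RNA retained on the beads was eluted in hot SDS and hybridised to a DNA barcode microarray for 20 h at 55.5 °C. Binding scores were Z-scores against the library mean and standard deviation, calculated after subtracting beads alone and taking trimmed means of replicate probes.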

[2] = test system: TO-N3-2 (biotin conjugate)
Summary of the method: as §1

[3] = test system: TO-3-N3 (biotin conjugate)
Summary of the method: as §1

TO-N3 (biotin conjugate) = test system: TO-N3 (biotin conjugate)
Summary of the method: as §1

| Sequence | pull-down binding Z-score [1] | pull-down binding Z-score [2] | pull-down binding Z-score [3] | pull-down binding Z-score (TO-N3 (biotin conjugate)) |
| --- | --- | --- | --- | --- |
| CCUGUGAACAGAUUGCUGACUCCCAGCAUCGGUCUCAUAGG [IAV_invivo_M1_M2_7_Motif_10+IAV_invivo_M1_M2_7_Motif_10] | -0.605 | -0.458 | -0.767 | -0.943 |
| CCUUACCCAGAUCCAUCAAGAAUCCUAGGGGCCGG | 0.14 | 0.308 | 0.842 | 0.876 |
| CCUUAUAAUUCACAGAAUGCUGUAGCCUCAAAGAUUUUGGGACUACCAACUCAAACUGUUGAUUCAUCACAGG [DMSMaPseq_invitro_SARS-CoV-2_Motif_319] | -0.324 | 0.0157 | -0.541 | -0.341 |
| CCUUCACACUCAAAGGCGGUGCACCAACAAAGGUUACUUUUGGUGAUGACACUGUGAUAGAAGUGCAAGG [SHAPE_invitro_SARS-CoV-2_Motif_51] | -0.155 | -0.0884 | -0.728 | -0.605 |
| CCUUCACUGUAGAAAAAGG [SHAPE_invivo_SARS-CoV-2_Motif_423] | -0.29 | -0.52 | -0.468 | -0.772 |
| CCUUGCACCUAAUAUGAUGGUAACAAACAAUACCUUCACACUCAAAGGCGGUGCACCAACAAAGGUUACUUUUGGUGAUGACACUGUGAUAGAAGUGCAAGG [SHAPE_invivo_SARS-CoV-2_Multi_7_ComplexLevel_1] | -0.454 | -0.526 | -0.657 | -0.857 |
| CCUUGCGAAAGGAGAGAAGGCUAAUGUGCUAAUUGGGCAAGG [IAV_invivo_PB2_1_Motif_34+IAV_invivo_PB2_1_Motif_34] | 0.584 | 0.837 | -0.245 | 0.291 |
| CCUUGUAGGUUUGUUACAGACACACCUAAAGG | -0.655 | -0.614 | -0.369 | -0.262 |
| CCUUUAGUACCUUUCUGGAUAACAAUUGCUUAUAUCAUUUGUAUUUCCACAAAGCAUUUCUAUUGG | -0.843 | -0.78 | -0.884 | -1.06 |
| CGAGUCUCUGAAACUCUACAGAGAUUCG [IAV_invivo_NS1_NEP_8_Motif_12+IAV_invivo_NS1_NEP_8_Motif_12] | -0.606 | -0.636 | -1 | -0.524 |
| CGCAGGGAAUGGAUAAUCUUGCCUGCG | -0.153 | -0.759 | -0.486 | -0.607 |
| CGGAUUCUGAAAGAAGAAUCCG [IAV_invivo_NS1_NEP_8_Motif_5+IAV_invivo_NS1_NEP_8_Motif_5] | -0.255 | -0.902 | 0.432 | 0.0717 |
| CGGCAUCAUAUGGGUUGCAACUGAGGGAGCCUUGAAUACACCAAAAGAUCACAUUGGCACCCGCAAUCCUGCUAACAAUGCUG [SHAPE_invitro_SARS-CoV-2_Motif_522] | 0.0568 | 0.334 | -0.511 | -0.253 |
| CGGCGGGCACGUAGUGUAGCUAGUCAAUCCAUCAUUGCCUACACUAUGUCACUUGGUG [SHAPE_invitro_SARS-CoV-2_Motif_429] | 0.313 | 1.07 | 0.745 | 1.13 |
| CGGGACCAACGAGGAAAUGUACUACUGUCUCCCG [IAV_invivo_PB2_1_Motif_23+IAV_invivo_PB2_1_Motif_23] | 0.118 | 0.354 | -0.431 | -0.196 |
| CGGGCUUAUGUUGCUCG | -0.43 | -0.956 | -0.429 | -0.791 |

| Sequence | pull-down binding Z-score [1] | pull-down binding Z-score [2] | pull-down binding Z-score [3] | pull-down binding Z-score (TO-N3 (biotin conjugate)) |
| --- | --- | --- | --- | --- |
| CGGGGCGGGAGGGGAAGGGACGCCCG [hsa-mir-6850] | 7.75 | 5.1 | 6.93 | 6.39 |
| CGGUUGCUUGGUCAGCAAGUGCAUGUCAUGAUGGCAUGGGCUGGCUAACAAUCG [IAV_invivo_NA_6_Motif_7+IAV_invivo_NA_6_Motif_7] | -0.69 | -0.222 | -0.929 | -0.939 |
| CGUGGUAUUCUUGCUAGUUACACUAGCCAUCCUUACUGCG | -0.37 | -0.427 | -0.913 | -1.1 |
| CGUUCGGAUGCUCGAACUGCACCUCAUGGUCAUGUUAUGGUUGAGCUGGUAGCAGAACUCGAAGGCAUUCAGUACG [SHAPE_invitro_SARS-CoV-2_Motif_11] | -0.454 | 1.57 | -0.289 | 0.0804 |
| CUAACAAUCUAGUUGUAAUGGCCUACAUUACAGGUGGUGUUGUUCAG [SHAPE_invivo_SARS-CoV-2_Motif_39] | -0.607 | -0.761 | -0.352 | -0.379 |
| CUAACAUGCUUAG [SHAPE_invitro_SARS-CoV-2_Motif_280] | -0.299 | -0.734 | 0.709 | 0.578 |
| CUAACUGAGAAUAAAUAUUCUCAAUUAG | -0.937 | -1.87 | -0.985 | -1.59 |
| CUAAGUCACUAACUGAGAAUAAAUAUUCUCAAUUAGAUGAAGAG | -0.135 | -0.981 | -1.02 | -1.15 |
| CUAAUAACACUAAAGGUUCAUUGCCUAUUAAUGUUAUAG | -0.0592 | -0.904 | 0.171 | -0.0515 |
| CUACAAAGCAACCAUGAUCUGUAUUGUCAAGUCCAUGGUAAUGCACAUGUAG | -0.092 | 0.374 | -0.654 | -0.227 |
| CUACACUAGUGCCACAAGAGCACUAUGUUAG | -0.213 | 0.417 | -0.402 | -0.127 |
| CUAGGUUUUUCUAUGUACUUGG | 0.313 | -0.376 | 1.15 | 0.825 |
| CUAGUUGUGAUGCAAUCAUGACUAG | -0.444 | -1.39 | -0.351 | -0.883 |
| CUAUACAUUCUUUAAGAGUUUGUGUAG | -0.294 | -1.28 | -0.365 | -0.583 |
| CUAUACUGUUACUAGAUCAGGCAUUAGUGUCUGAUGUUGGUGAUAGUGCGG | -0.622 | -0.582 | -0.845 | -0.939 |
